Results as given in the supplement of paper PMC10724198.

Experiments:
Saccharomyces cerevisiae [1] = experiment: protein stability index of tFT-peptide fusion in wild type (PSI (0-1 scale)); higher = more stable (slower turnover); conditions: genetic background: wild type
Method: (§1)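 MPS profiling in S. cerevisiae of two library types built from selected 12-aa C-degron peptides (IN1, IN2, LN1, LN3, VN2, R1-R5, W1-W3, Atg1 and Rpa12 C-termini): saturation mutagenesis libraries and C-terminal +1 capping libraries (13 aa). Each peptide is fused to the C-terminus of a sfGFP-mCherry timer, after a GGGS linker. Cells are FACS-sorted into 8 mCherry/sfGFP bins and sequenced. PSI runs from 0 (unstable) to 1 (stable), measured once in wild type and in the das1Δ or doa10Δ background.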

Saccharomyces cerevisiae [2] = experiment: protein stability index of tFT-peptide fusion in deletion strain of DAS1 (PSI (0-1 scale)); higher = more stable (slower turnover)
Method: as §1
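Wherever protein stability index of tFT-peptide fusion in deletion strain of DAS1 is given: PSI is a weighted mean of each variant's read distribution over the sorted stability bins, computed only for variants having over 10 reads in total.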
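Wherever protein stability index of tFT-peptide fusion in wild type is given: PSI derived as read-weighted mean over the 8 sorting bins, only variants exceeding 10 total reads kept, mCherry placed adjacent to the peptide and sfGFP distal.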

| Sequence | protein stability index (Saccharomyces cerevisiae [1]) | protein stability index (Saccharomyces cerevisiae [2]) |
| --- | --- | --- |
| AEWRVGLWRGAS | 0.528 | 0.689 |
| AHWRVGLWRGAS | 0.43 | 0.688 |
| ARIRVGLWRGAS | 0.599 | 0.686 |
| ARRRVGLWRGAS | 0.538 | 0.723 |
| ARWLVGLWRGAS | 0.419 | 0.706 |
| ARWRDGLWRGAS | 0.651 | 0.692 |
| ARWRVELWRGAS | 0.203 | 0.665 |
| ARWRVGAWRGAS | 0.427 | 0.688 |
| ARWRVGLVRGAS | 0.614 | 0.663 |
| ARWRVGLWHGAS | 0.624 | 0.665 |
| ARWRVGLWKGAS | 0.64 | 0.671 |
| ARWRVGLWQGAS | 0.602 | 0.578 |
| ARWRVGLWRGASG | 0.662 | 0.674 |
| ARWRVGLWRGASP | 0.663 | 0.672 |
| ARWRVGLWRKAS | 0.1 | 0.672 |
| ARWRVGLWRWAS | 0.0999 | 0.694 |
| ARWRVGSWRGAS | 0.641 | 0.692 |
| ARWRVQLWRGAS | 0.287 | 0.689 |
| ARWRVVLWRGAS | 0.517 | 0.621 |
| CHSCGYKFRTNN | 0.212 | 0.715 |
| CNSCGYKFRTNN | 0.193 | 0.702 |
| CQSCGYKFRTNN | 0.248 | 0.7 |
| CRWRVGLWRGAS | 0.276 | 0.697 |
| CSMRWTFRYWVN | 0.0623 | 0.573 |

| Sequence | protein stability index (Saccharomyces cerevisiae [1]) | protein stability index (Saccharomyces cerevisiae [2]) |
| --- | --- | --- |
| CTLCGYKFRTNN | 0.278 | 0.72 |
| CTSCGEKFRTNN | 0.523 | 0.666 |
| CTSCGIKFRTNN | 0.376 | 0.688 |
| CTSCGPKFRTNN | 0.598 | 0.674 |
| CTSCGYKDRTNN | 0.634 | 0.702 |
| CTSCGYKFGTNN | 0.688 | 0.693 |
| CTSCGYKFRPNN | 0.727 | 0.714 |
| CTSCGYKFRTLN | 0.132 | 0.696 |
| CTSCGYKFRTNL | 0.652 | 0.703 |
| CTSCGYKFRTNNC | 0.708 | 0.673 |
| CTSCGYKFRTNNT | 0.692 | 0.689 |
| CTSCGYKFVTNN | 0.495 | 0.692 |
| CTSCGYKTRTNN | 0.632 | 0.679 |
| CTSCGYKVRTNN | 0.388 | 0.693 |
| CTSCGYLFRTNN | 0.348 | 0.698 |
| CTSCGYYFRTNN | 0.283 | 0.697 |
| CTSCLYKFRTNN | 0.185 | 0.675 |
| CTSGGYKFRTNN | 0.551 | 0.673 |
| CTSNGYKFRTNN | 0.381 | 0.674 |
| CTSWGYKFRTNN | 0.137 | 0.744 |
| CTWCGYKFRTNN | 0.224 | 0.685 |
| DKILRQKMNHQN | 0.121 | 0.672 |
| ERGAVGGWRLVG | 0.168 | 0.675 |
| ESMRWTFRYWVN | 0.0849 | 0.56 |

| Sequence | protein stability index (Saccharomyces cerevisiae [1]) | protein stability index (Saccharomyces cerevisiae [2]) |
| --- | --- | --- |
| FSGRWTFRYWVN | 0.0867 | 0.626 |
| FSMRGTFRYWVN | 0.106 | 0.608 |
| FSMRHTFRYWVN | 0.0782 | 0.588 |
| FSMRQTFRYWVN | 0.0909 | 0.558 |
| FSMRWKFRYWVN | 0.0643 | 0.577 |
| FSMRWTARYWVN | 0.0802 | 0.513 |
| FSMRWTFRKWVN | 0.314 | 0.634 |
| FSMRWTFRYCVN | 0.088 | 0.492 |
| FSMRWTFRYMVN | 0.0804 | 0.577 |
| FSMRWTFRYWLN | 0.0521 | 0.486 |
| FSMRWTFRYWMN | 0.07 | 0.485 |
| FSMRWTFRYWSN | 0.313 | 0.538 |
| FSMRWTFRYWVE | 0.502 | 0.473 |
| FSMRWTFRYWVG | 0.422 | 0.476 |
| FSMRWTFRYWVNC | 0.114 | 0.508 |
| FSMRWTFRYWVNI | 0.134 | 0.527 |
| FSMRWTFRYWVT | 0.225 | 0.469 |
| FSMRWTFRYWYN | 0.149 | 0.48 |
| FSMRWTFYYWVN | 0.0564 | 0.418 |
| FSMRWTWRYWVN | 0.0598 | 0.625 |
| FSPRWTFRYWVN | 0.075 | 0.59 |
| FSSRWTFRYWVN | 0.1 | 0.604 |
| FVVYLSCVACIN | 0.0218 | 0.0242 |
| FWMRWTFRYWVN | 0.0402 | 0.379 |

| Sequence | protein stability index (Saccharomyces cerevisiae [1]) | protein stability index (Saccharomyces cerevisiae [2]) |
| --- | --- | --- |
| HSMRWTFRYWVN | 0.0543 | 0.586 |
| HVVYLSCVACIN | 0.0139 | 0.0397 |
| IKILRQKMNHQN | 0.177 | 0.659 |
| KKEKKGQKQKIN | 0.0774 | 0.578 |
| KKFKKGQKQKIN | 0.129 | 0.575 |
| KKHKCGQKQKIN | 0.0807 | 0.582 |
| KKHKKAQKQKIN | 0.06 | 0.601 |
| KKHKKCQKQKIN | 0.0395 | 0.548 |
| KKHKKGQKAKIN | 0.241 | 0.611 |
| KKHKKGQKGKIN | 0.563 | 0.584 |
| KKHKKGQKKKIN | 0.523 | 0.576 |
| KKHKKGQKMKIN | 0.105 | 0.583 |
| KKHKKGQKQIIN | 0.642 | 0.584 |
| KKHKKGQKQKIH | 0.114 | 0.662 |
| KKHKKGQKQKINN | 0.231 | 0.659 |
| KKHKKGQKQKINP | 0.658 | 0.663 |
| KKHKKGQKQKINQ | 0.644 | 0.664 |
| KKHKKGQKQKINR | 0.644 | 0.657 |
| KKHKKGQKQKIP | 0.336 | 0.638 |
| KKHKKGQKQKQN | 0.264 | 0.583 |
| KKHKKGQKTKIN | 0.435 | 0.619 |
| KKHKKGQYQKIN | 0.0851 | 0.569 |
| KKHMKGQKQKIN | 0.103 | 0.551 |
| KKHRKGQKQKIN | 0.109 | 0.678 |

| Sequence | protein stability index (Saccharomyces cerevisiae [1]) | protein stability index (Saccharomyces cerevisiae [2]) |
| --- | --- | --- |
| KKHTKGQKQKIN | 0.129 | 0.622 |
| KSLAASFWRVVG | 0.112 | 0.673 |
| LDVYLSCVACIN | 0.134 | 0.231 |
| LKALRQKMNHQN | 0.213 | 0.672 |
| LKFLRQKMNHQN | 0.166 | 0.697 |
| LKHKKGQKQKIN | 0.094 | 0.576 |
| LKICRQKMNHQN | 0.254 | 0.722 |
| LKIFRQKMNHQN | 0.191 | 0.669 |
| LKIHRQKMNHQN | 0.226 | 0.673 |
| LKIIRQKMNHQN | 0.204 | 0.718 |
| LKILFQKMNHQN | 0.267 | 0.688 |
| LKILRAKMNHQN | 0.223 | 0.665 |
| LKILRQCMNHQN | 0.288 | 0.686 |
| LKILRQKCNHQN | 0.295 | 0.663 |
| LKILRQKINHQN | 0.23 | 0.668 |
| LKILRQKMKHQN | 0.568 | 0.687 |
| LKILRQKMLHQN | 0.227 | 0.643 |
| LKILRQKMNAQN | 0.208 | 0.671 |
| LKILRQKMNHQN | 0.192 | 0.674 |
| LKILRQKMNHQNK | 0.656 | 0.664 |
| LKILRQKMNHQNY | 0.595 | 0.705 |
